# According to patent publication US12458703B2, “Responsive elastic polymers and methods of making and using same” (Purdue Research Foundation, priority 2016, dated 2025):
# Test: Intravital fluorescence imaging of BSA-AF release in the knee joint after intra-articular injection
# Assay type: in vivo
# Conditions: total radiant efficiency from knee joint, released from HA-g-PNIPAm hydrogels
substance,measurement,setting,value
Alexa Fluor 680 conjugated BSA: Alexa Fluor 680 conjugated BSA released from HA-g-PNIPAm hydrogels,time detected in the knee joints,,more than 24 hours
same,time of maximum concentration post intra-articular injection,n=4,6 to 12 h
